The assay has as its target T1, CD3 (Example 7).
T1 construct: Partner of the 145-2C11 Fab and its fusions
As to the kind of experiment: SPR, biotinylated CD3 on SA chip, Langmuir 1:1. The protocol: For SPR-analysis of PD1/CD3, a CM5 sensor Chip (GE Healthcare) with immobilized target PD1 (about 800 RU) was prepared. CD3 was 10 times biotinylated and immobilized on SA coupled sensor chip (GE Healthcare) of about 200 RU. Specific binding of biotin and streptavidin provides a strong interaction of the target protein on the chip. Injection of free biotin blocks unbound streptavidin avoiding unspecific interaction during measurement. Determination of dissociation constant and data evaluation was equal to Example 6.
A general note: In SPR one partner is held on a chip, and binding of the other changes the refractive index at the surface.

T1 sequence (P22646 22-108): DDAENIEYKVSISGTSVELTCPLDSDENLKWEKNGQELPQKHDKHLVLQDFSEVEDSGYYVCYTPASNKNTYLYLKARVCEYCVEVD

B1: 145-2C11 Fab Fragment (Fab, V domains shown)
VH: EVQLVESGGGLVQPGKSLKLSCEASGFTFSGYGMHWVRQAPGRGLESVAYITSSSINIKYADAVKGRFTVSRDNAKNLLFLQMNILKSEDTAMYYCARFDWDKNYWGQGTMVTVSS
VL: DIQMTQSPSSLPASLGDRVTINCQASQDISNYLNWYQQKPGKAPKLLIYYTNKLADGVPSRFSGSGSGRDSSFTISSLESEDIGSYYCQQYYNYPWTFGPGTKLEIKR
notes: also called PID 38; CD3 specific Fab fragment
In turn, B1 came in with a Kd of 13.4 nM, an off-rate (koff) of 0.00296 s⁻¹ and a kon of 221000 M⁻¹ s⁻¹.

The Kd is the constant that tells how readily two partners part at equilibrium. Lower therefore signals tighter binding. For orientation: koff means a measure of how fast the partners let go of each other. A word on the kon: it is a measure of how fast the partners come together.

The values above are taken from patent publication US20190292266A1 (NAVIGO PROTEINS, published 2019).
